Reference: IntAct's records for PubMed 22328087

B1: Membrane protein MLC1 (Homo sapiens), Q15049 (parent)
chain: MTQEPFREELAYDRMPTLERGRQDPASYAPDAKPSDLQLSKRLPPCFSHKTWVFSVLMGSCLLVTSGFSLYLGNVFPAEMDYLRCAAGSCIPSAIVSFTVSRRNANVIPNFQILFVSTFAVTTTCLIWFGCKLVLNPSAININFNLILLLLLELLMAATVIIAARSSEEDCKKKKGSMSDSANILDEVPFPARVLKSYSVVEVIAGISAVLGGIIALNVDDSVSGPHLSVTFFWILVACFPSAIASHVAAECPSKCLVEVLIAISSLTSPLLFTASGYLSFSIMRIVEMFKDYPPAIKPSYDVLLLLLLLVLLLQAGLNTGTAIQCVRFKVSARLQGASWDTQNGPQERLAGEVARSPLKEFDKEKAWRAVVVQMAQ

Variants of: B1
Settings: with at1b1_human ATP1B1, P05026

How did the “effect of a mutation on the interaction” value turn out when MTQEPFREELAYDRMPTLERGRQDPASYAPDAKPSDLQLSKRLPPCFSHKTWVFSVLMGSCLLVTSGFSLYLGNVFPAEMDYLRCAAGSCIPSAIVSFTVSRRNANVIPNFQILFVSTFAVTTTRLIWFGCKLVLNPSAININFNLILLLLLELLMAATVIIAARSSEEDCKKKKGSMSDSANILDEVPFPARVLKSYSVVEVIAGISAVLGGIIALNVDDSVSGPHLSVTFFWILVACFPSAIASHVAAECPSKCLVEVLIAISSLTSPLLFTASGYLSFSIMRIVEMFKDYPPAIKPSYDVLLLLLLLVLLLQAGLNTGTAIQCVRFKVSARLQGASWDTQNGPQERLAGEVARSPLKEFDKEKAWRAVVVQMAQ [C125R] was run?
Its value is “disrupting interaction”.

For MTQEPFREELAYDRMPTLERGRQDPASYAPDAKPSDLQLSKRLPPCFSHKTWVFSVLMGSCLLVTSGFSLYLGNVFPAEMDYLRCAAGSCIPSAIVSFTVSRRNANVIPNFQILFVSTFAVTTTCLIWFGCKLVLNPSAININFNLILLLLLELLMAATVIIAARSSEEDCKKKKGSMSDSANILDEVPFPARVLKSYSVVEVIAGISAVLGGIIALNVDDSVSGPHLSVTFFWILVACFPSAIASHVAAECPSKCLVEVLIAISSLTSPLLFTASGYLLFSIMRIVEMFKDYPPAIKPSYDVLLLLLLLVLLLQAGLNTGTAIQCVRFKVSARLQGASWDTQNGPQERLAGEVARSPLKEFDKEKAWRAVVVQMAQ [S280L], which “effect of a mutation on the interaction” value is on record?
Its value is “disrupting interaction”.

Variants of: B1
Settings: with at1b1_human ATP1B1, P05026
Remark: another data set of the same source

MTQEPFREELAYDRMPTLERGRQDPASYAPDAKPSDLQLSKRLPPCFSHKTWVFSVLMGSCLLVTSGFSLYLGNVFPAEMDYLRCAAGSCIPSAIVSFTVSRRNANVIPNFQILFVSTFAVTTTCLIWFGCKLVLNPSAININFNLILLLLLELLMAATVIIAARSSEEDCKKKKGSMSDSANILDEVPFPARVLKSYSVVEVIAGISAVLGGIIALNVDDSVSGPHLSVTFFWILVACFPSAIARHVAAECPSKCLVEVLIAISSLTSPLLFTASGYLSFSIMRIVEMFKDYPPAIKPSYDVLLLLLLLVLLLQAGLNTGTAIQCVRFKVSARLQGASWDTQNGPQERLAGEVARSPLKEFDKEKAWRAVVVQMAQ [S246R] was tested. Which “effect of a mutation on the interaction” value did it give?
Its value is “decreasing interaction”.

With MTQEPFREELAYDRMPTLERGRQDPASYAPDAKPSDLQLSKRLPPCFSHKTWVFSVLMGSCLLVTSGFSLYLGNVFPAEMDYLRCAAGSCIPSAIVSFTVSRRNANVIPNFQILFVSTFAVTTTCLIWFGCKLVLNPSAININFNLILLLLLELLMAATVIIAARSSEEDCKKKKGSMSDSANILDEVPFPARVLKSYSVVEVIAGISAVLGGIIALNVDDSVSGPHLSVTFFWILVACFPSAIASHVAAECPSKCLVEVLIAISSLTSPLLFTASGYLLFSIMRIVEMFKDYPPAIKPSYDVLLLLLLLVLLLQAGLNTGTAIQCVRFKVSARLQGASWDTQNGPQERLAGEVARSPLKEFDKEKAWRAVVVQMAQ [S280L] as the variant, how does the “effect of a mutation on the interaction” value read?
Its value is “decreasing interaction”.
